Results as given in patent publication EP4592317A1 (ABlink Biotech Co., Ltd., dated 2025).
Where “and” joins values, the source holds several entries; their conditions need not be identical. Identical values can stand only once.

Legend:
[1] = molecular target: T1, Monkey 4-1BB extracellular region recombinant protein (his-tag) (monkey); test: ELISA, coated monkey 4-1BB-his 200 ng/well; antibody 1.11 µg/ml
T1 construct: extracellular domain; also called Monkey4-1BB, his-tag

[2] = molecular target: T2, Human 4-1BB extracellular domain recombinant protein (his-tag) (human, UniProt Q07011 24-186); test: ELISA, coated human 4-1BB-his 200 ng/well; antibody 0.014 µg/ml
T2 construct: extracellular domain; also called Human4-1BB, his-tag; human 4-1BB extracellular region recombinant protein; not shown: his-tag

[3] = molecular target: T1, Monkey 4-1BB extracellular region …; test: ELISA, coated monkey 4-1BB-his 200 ng/well; antibody 0 µg/ml (background well)
[4] = molecular target: T1, Monkey 4-1BB extracellular region …; test: ELISA, coated monkey 4-1BB-his 200 ng/well; antibody 0.37 µg/ml
[5] = molecular target: T1, Monkey 4-1BB extracellular region …; test: ELISA, coated monkey 4-1BB-his 200 ng/well; antibody 0.041 µg/ml
[6] = molecular target: T2, Human 4-1BB extracellular domain …; test: ELISA, coated human 4-1BB-his 200 ng/well; antibody 10.0 µg/ml
[7] = molecular target: T3, Mouse 4-1BB extracellular region recombinant protein (his-tag) (mouse, UniProt P20334 24-187); test: ELISA, coated mouse 4-1BB-his 200 ng/well; antibody 0.12 µg/ml
T3 construct: extracellular domain; also called Mouse4-1BB, his-tag; not shown: his-tag
T3 sequence (looked up): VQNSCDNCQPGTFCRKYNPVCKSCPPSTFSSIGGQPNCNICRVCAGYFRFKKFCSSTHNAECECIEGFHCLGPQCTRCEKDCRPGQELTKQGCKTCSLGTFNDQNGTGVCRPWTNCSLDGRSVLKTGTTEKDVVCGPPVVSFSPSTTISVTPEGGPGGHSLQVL

[8] = molecular target: T3, Mouse 4-1BB extracellular region …; test: ELISA, coated mouse 4-1BB-his 200 ng/well; antibody 0.37 µg/ml
[9] = molecular target: T1, Monkey 4-1BB extracellular region …; test: ELISA, coated monkey 4-1BB-his 200 ng/well; antibody 3.33 µg/ml
[10] = molecular target: T1, Monkey 4-1BB extracellular region …; test: ELISA, coated monkey 4-1BB-his 200 ng/well
[11] = molecular target: T2, Human 4-1BB extracellular domain …; test: ELISA, coated human 4-1BB-his 200 ng/well; antibody 0.12 µg/ml
[12] = molecular target: T2, Human 4-1BB extracellular domain …; test: SPR (Biacore 8K), VHH-hFc captured on Protein A chip, human 4-1BB-his as analyte, 25°C, 1:1 fit
[13] = molecular target: T3, Mouse 4-1BB extracellular region …; test: ELISA, coated mouse 4-1BB his-tag 200 ng/well
[14] = molecular target: T3, Mouse 4-1BB extracellular region …; test: ELISA, coated mouse 4-1BB-his 200 ng/well; antibody 10.0 µg/ml
[15] = molecular target: T3, Mouse 4-1BB extracellular region …; test: ELISA, coated mouse 4-1BB-his 200 ng/well; antibody 3.33 µg/ml
[16] = molecular target: T2, Human 4-1BB extracellular domain …; test: ELISA, coated human 4-1BB-his 200 ng/well; antibody 1.11 µg/ml
[17] = molecular target: T3, Mouse 4-1BB extracellular region …; test: ELISA, coated mouse 4-1BB-his 200 ng/well; antibody 0.041 µg/ml
[18] = molecular target: T3, Mouse 4-1BB extracellular region …; test: ELISA, coated mouse 4-1BB-his 200 ng/well; antibody 0.014 µg/ml
[19] = molecular target: T2, Human 4-1BB extracellular domain …; test: ELISA, coated human 4-1BB-his 200 ng/well; antibody 3.33 µg/ml
[20] = molecular target: T1, Monkey 4-1BB extracellular region …; test: ELISA, coated monkey 4-1BB-his 200 ng/well; antibody 0.014 µg/ml
[21] = molecular target: T3, Mouse 4-1BB extracellular region …; test: ELISA, coated mouse 4-1BB-his 200 ng/well; antibody 1.11 µg/ml
[22] = molecular target: T3, Mouse 4-1BB extracellular region …; test: ELISA, coated mouse 4-1BB-his 200 ng/well; antibody 0 µg/ml (background well)
[23] = molecular target: T1, Monkey 4-1BB extracellular region …; test: ELISA, coated monkey 4-1BB-his 200 ng/well; antibody 0.12 µg/ml
[24] = molecular target: T2, Human 4-1BB extracellular domain …; test: ELISA, coated human 4-1BB-his 200 ng/well; antibody 0.37 µg/ml
[25] = molecular target: T2, Human 4-1BB extracellular domain …; test: ELISA, coated human 4-1BB-his 200 ng/well
[26] = molecular target: T1, Monkey 4-1BB extracellular region …; test: ELISA, coated monkey 4-1BB-his 200 ng/well; antibody 10.0 µg/ml
[27] = molecular target: T2, Human 4-1BB extracellular domain …; test: ELISA, coated human 4-1BB-his 200 ng/well; antibody 0 µg/ml (background well)
[28] = molecular target: T2, Human 4-1BB extracellular domain …; test: ELISA, coated human 4-1BB-his 200 ng/well; antibody 0.041 µg/ml

B1: 137-18 VHH-hFc recombinant antibody (Fc fusion)
chain: QVQLVESGGGLVHPGGSLRLSCAASGFIFSLYTMSWVRQAPGKGLEWVSDINSGGDSTDYADSVKGRFTISRDNAKSTLYLQMNSLKPEDTAVYYCAKDYPLGQREDYWGQGTQVTVSS
notes: VHH fragment inserted into vector pFclG with human IgG1 Fc tag, expressed in HEK293F; also called CD137-18; not shown: human IgG1 Fc tag of the eukaryotic expression vector pFclG
- absorbance at 450 nm [1]: 1.19
- absorbance at 450 nm [2]: 0.399
- absorbance at 450 nm [3]: 0.051
- absorbance at 450 nm [4]: 0.707
- absorbance at 450 nm [5]: 0.392
- absorbance at 450 nm [6]: 2.93
- absorbance at 450 nm [7]: 0.192
- absorbance at 450 nm [8]: 0.199
- absorbance at 450 nm [9]: 2.05
- EC50 [10]: 4.36 µg/mL and 54.5 nM
- absorbance at 450 nm [11]: 0.562
- Kd [12]: 3.36 nM
- koff [12]: 0.000792 s⁻¹
- kon [12]: 236000 M⁻¹ s⁻¹
- binding result [13]: no binding (tested: 0.014-10 µg/mL)
- absorbance at 450 nm [14]: 0.288
- absorbance at 450 nm [15]: 0.219
- absorbance at 450 nm [16]: 1.31
- absorbance at 450 nm [17]: 0.182
- absorbance at 450 nm [18]: 0.188
- absorbance at 450 nm [19]: 1.73
- absorbance at 450 nm [20]: 0.325
- absorbance at 450 nm [21]: 0.214
- absorbance at 450 nm [22]: 0.203
- absorbance at 450 nm [23]: 0.433
- absorbance at 450 nm [24]: 0.732
- EC50 [25]: 4.06 µg/mL and 50.8 nM
- absorbance at 450 nm [26]: 3.3
- absorbance at 450 nm [27]: 0.119
- absorbance at 450 nm [28]: 0.451
